Test results reported in patent US20230256017A1 (published 2023).

T1: BCMA (TNFRSF17) (human, UniProt Q02223 1-184, limits assumed)
T1 construct: Member of a commercial human plasma membrane protein array
T1 sequence (looked up): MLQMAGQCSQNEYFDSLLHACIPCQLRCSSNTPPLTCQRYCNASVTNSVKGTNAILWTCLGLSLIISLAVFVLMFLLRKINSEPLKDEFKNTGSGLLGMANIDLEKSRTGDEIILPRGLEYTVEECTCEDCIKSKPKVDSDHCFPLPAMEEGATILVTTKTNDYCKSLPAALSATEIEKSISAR

T2: CD2 (human, UniProt P06729 25-351)
T2 construct: whole, on cells; also called T-cell surface antigen T11/Leu-5/CD2
T2 sequence (looked up): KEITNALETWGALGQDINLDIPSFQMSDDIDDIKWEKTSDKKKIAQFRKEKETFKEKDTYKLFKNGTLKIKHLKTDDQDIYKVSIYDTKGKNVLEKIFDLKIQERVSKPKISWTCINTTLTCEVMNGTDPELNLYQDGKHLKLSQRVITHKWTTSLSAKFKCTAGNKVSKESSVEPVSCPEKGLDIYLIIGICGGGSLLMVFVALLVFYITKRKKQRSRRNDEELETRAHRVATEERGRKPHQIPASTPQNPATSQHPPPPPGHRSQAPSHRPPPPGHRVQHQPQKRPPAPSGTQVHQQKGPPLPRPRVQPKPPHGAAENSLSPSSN

B1: anti-human BCMA single chain antibody variable fragment (scFv) (PI61) (scFv)
scFv: QVQLQESGGGVVQPGRSLRLSCAASGFTFSSYGMHWVRQAPGKGLEWVAVISYDGSNKYYADSVKGRFTISRDNSKNTLYLQMNSLRAEDTAVYYCGGSGYALHDDYYGLDVWGQGTLVTVSSGGGGSGGGGSGGGGSQSALTQPASVSGSPGQSITISCTGTSSDVGGYNYVSWYQQHPGKAPKLMIYDVSNRPSGVSNRFSGSKSGNTASLTISGLQAEDEADYYCSSYTSSSTLYVFGSGTKVTVL
notes: also called PI61 scFv
B2: Construct 1 (bispecific antibody, human IgG1, kappa)
light: DVVMTQSPPSLLVTLGQPASISCRSSQSLLHSSGNTYLNWLLQRPGQSPQPLIYLVSKLESGVPDRFSGSGSGTDFTLKISGVEAEDVGVYYCMQFTHYPYTFGQGTKLEIKRTVAAPSVFIFPPSDEQLKSGTASVVCLLNNFYPREAKVQWKVDNALQSGNSQESVTEQDSKDSTYSLSSTLTLSKADYEKHKVYACEVTHQGLSSPVTKSFNRGEC
heavy: not shown
notes: Anti-CD3 scFv fused to an anti-CD2 Fab, further fused to a wild type Fc; also called F1
B3: Construct 3 (bispecific antibody, human IgG1, kappa)
light: B2 light
heavy: not shown
notes: Anti-CD2 Fab fused to a wild type Fc, further fused to an anti-CD3 scFv; Stated ligand valency of 2; also called F3
B4: Construct 5 (bispecific antibody)
light: B2 light
heavy: not shown
notes: Anti-CD2 Fab fused to an anti-CD3 scFv, further fused to an Fc; Stated ligand valency of 2; also called F5
B5: Construct 7 (bispecific antibody)
light: B2 light
heavy: not shown
notes: Anti-CD3 scFv fused to an Fc, further fused to an anti-CD2 Fab; Stated ligand valency of 2; also called F7
B6: Construct 12 (bispecific antibody, human IgG1, kappa)
light: B2 light
heavy 1: QVQLVQSGAEVQRPGASVKVSCKASGYIFTEYYMYWVRQAPGQGLELVGRIDPEDGSIDYVEKFKKKVTLTADTSSSTAYMELSSLTSDDTAVYYCARGKFNYRFAYWGQGTLVTVSSASTKGPSVFPLAPSSKSTSGGTAALGCLVKDYFPEPVTVSWNSGALTSGVHTFPAVLQSSGLYSLSSVVTVPSSSLGTQTYICNVNHKPSNTKVDKRVEPKSCDKTHTCPPCPAPELLGGPSVFLFPPKPKDTLMISRTPEVTCVVVDVSHEDPEVKFNWYVDGVEVHNAKTKPREEQYNSTYRVVSVLTVLHQDWLNGKEYKCKVSNKALPAPIEKTISKAKGQPREPQVCTLPPSREEMTKNQVSLSCAVKGFYPSDIAVEWESNGQPENNYKTTPPVLDSDGSFFLVSKLTVDKSRWQQGNVFSCSVMHEALHNRFTQKSLSLSPGK
heavy 2: not shown
notes: Anti-CD2 Fab-Fc paired with anti-CD3 scFv-Fc-(G4S)3-Matrilin1; also called F12
B7: Construct 15 (bispecific antibody, human IgG1, kappa)
light: B2 light
heavy 1: B6 heavy 1
heavy 2: not shown
notes: Anti-CD2 Fab-Fc paired with anti-CD3 scFv-Fc-(G4S)-COMPcc; also called F15

The binders below were run against T1, BCMA (TNFRSF17) (assay: commercial human plasma membrane protein array).
B1: binds.

What follows are binders tested against T2, CD2 (assay: legend of FIG. 55 (CAR transduction of donor T cells by costimulatory molecule targeted); no direct binding assay).
B2: binds.
B3: binds.
B4: binds.
B5: binds.
B6: binds.
B7: binds.
